Literature values, collected in paper PMC3849016.

Target: VEGFR2 (vascular endothelial growth factor receptor 2) (UniProt P35968)
Conditions: printed Z = 5-N-(benzylcarboxyamide)-2'-deoxyuridine (BzdU), written here as U at every Z; all other residues are DNA; 5' H2N-C6; not stated for the supplier …

UniProt P35968, sequence (P35968 whole entry): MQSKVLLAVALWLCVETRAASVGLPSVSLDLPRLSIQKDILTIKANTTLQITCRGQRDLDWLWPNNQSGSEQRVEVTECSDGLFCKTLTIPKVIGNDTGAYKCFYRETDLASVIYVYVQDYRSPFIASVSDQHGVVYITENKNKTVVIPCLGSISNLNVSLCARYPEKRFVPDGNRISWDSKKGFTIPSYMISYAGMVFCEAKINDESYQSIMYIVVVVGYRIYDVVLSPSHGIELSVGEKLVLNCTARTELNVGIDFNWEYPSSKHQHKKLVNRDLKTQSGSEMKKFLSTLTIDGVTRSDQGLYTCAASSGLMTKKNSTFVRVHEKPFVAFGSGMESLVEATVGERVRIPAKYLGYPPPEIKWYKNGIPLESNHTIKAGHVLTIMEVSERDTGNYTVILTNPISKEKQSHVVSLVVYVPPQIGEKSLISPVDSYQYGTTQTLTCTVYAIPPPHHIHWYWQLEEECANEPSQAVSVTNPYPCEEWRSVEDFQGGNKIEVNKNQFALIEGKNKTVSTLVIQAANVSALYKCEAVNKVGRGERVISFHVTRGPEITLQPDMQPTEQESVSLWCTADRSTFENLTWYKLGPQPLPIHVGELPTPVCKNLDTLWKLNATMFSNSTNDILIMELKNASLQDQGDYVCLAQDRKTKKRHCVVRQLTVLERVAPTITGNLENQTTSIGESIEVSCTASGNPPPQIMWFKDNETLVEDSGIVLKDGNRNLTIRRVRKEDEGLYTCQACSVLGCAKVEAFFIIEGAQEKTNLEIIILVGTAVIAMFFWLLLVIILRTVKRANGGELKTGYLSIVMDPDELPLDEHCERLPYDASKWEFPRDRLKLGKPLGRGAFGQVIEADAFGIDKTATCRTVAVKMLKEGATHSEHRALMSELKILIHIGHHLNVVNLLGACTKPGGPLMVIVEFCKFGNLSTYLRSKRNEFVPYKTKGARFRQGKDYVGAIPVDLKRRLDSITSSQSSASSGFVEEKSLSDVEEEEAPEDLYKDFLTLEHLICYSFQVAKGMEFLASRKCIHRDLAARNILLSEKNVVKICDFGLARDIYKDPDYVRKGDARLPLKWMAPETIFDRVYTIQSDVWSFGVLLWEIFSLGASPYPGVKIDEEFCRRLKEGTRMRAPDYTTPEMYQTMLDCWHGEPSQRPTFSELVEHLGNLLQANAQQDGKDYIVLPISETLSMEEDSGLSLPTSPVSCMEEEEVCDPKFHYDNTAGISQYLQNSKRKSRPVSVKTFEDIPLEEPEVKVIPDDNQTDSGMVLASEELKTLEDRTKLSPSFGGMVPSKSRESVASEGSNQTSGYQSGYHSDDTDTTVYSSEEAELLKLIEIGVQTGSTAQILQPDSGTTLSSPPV

For “ACGAGCUACGACGUCUGGUGUAAUUUAUAAAGACACUGUGUAUAUCAACAA [anti-VEGFR2 DNA aptamer (Aptamer Science Cat. 186)]”, the Kd is listed as 0.12 nM.
